Laboratory results taken from a protein production outcome set (Wang et al. 2014).

Assay: label from the status in PepcDB records

With “MDVKKDENSILENMKQEINHSLKEEAQEEEEILKKRISSHPLYGLLLHSHLNCLKVCSGDFDSPEIMNTADDLALSKLSLHPDSSSEATSSELDQFMVLFFFSPCQNIFTQQKTTFHVLLFFPLQINLTFKYSKFILPRKKQ” as the sequence, how does the protein production read?
Its protein production is “failed”.

For “MERIETIPTDKEHLSQDEVIRLASTPCSAPALKRAFLFSCLTALRKSDIKKLTWEEIQPYGSDGVMYVTTRMQKTKDIVHNPISEEALELIGYSPDKRGKVFPDFKDSMTQAPLKNWLKDAGITKHISYHCSRHSFACLQLDAGTSIAVVQRYLGHKNVATTEVYAKISDAQKRASVGLEHHHHHH”, which protein production is on record?
The protein production was “not failed”.

For “MAKLRHSRFQARKWSTLMLVLFMLFMLTIVLLMLLAFGVFSLPINNDESSPIDLSYFRRAATERSEGLGKRGDQWTEVLSWEPRAFVYHNFLSKEECEYLISLAKPHMVKSTVVDSETGKSKDSRVRTSSGTFLRRGRDKIIKTIEKRIADYTFIPADHGEGLQVLHYEAGQKYEPHYDYFVDEFNTKNGGQRMATMLMYLSDVEEGGETVFPAANMNFSSVPWYNELSECGKKGLSVKPRMGDALLFWSMRPDATLDPTSLHGGCPVIRGNKWSSTKWMHVGEYKI”, which protein production is on record?
The protein production was “failed”.

For “MKNILPLMWVIILMFVISQGVSAKGKKEIPKSEYGSYIVIMDLNPAIAYEGDIKGFKATKPGKNKKINPKSANVRKYTSMLSKTHDAALAKANVKSKDKVHDYGIALNGFSAKMTHEQAVALSSQDGVAKVMPDVLRQKMTDNSPSFLDLGGPAGPWLKGYDGEGIVIGVIDTGIWPEHPSFTDDGSYSTPPILLDDSRPNCEFGNTGHRPDDVAFSCNNKLIGARQMLDTYRLIVGATSDEFDSARDEDGHGTHTSSTSGGNANVPANMLGNDYGLISGIAPRAHIVMYKGLGDLGGFGSDLAAAIDQAVADGVDVINYSIGSSSFAIGPDDVAFLFAENAGVFVATSNGNSGPAPATTGSPASTPWVTSVGASTQNRTYQGSASSVGEWEFFGASITAGTAELALIDSAEAGSELCIPGVLDPVAVAGKIVLCLRGAIARVDKSKAVNIAGGAGMILYNANDGESQVTDSHWVPSVHINNTDGLVIKGYISNDASTAVAQIMGGTYTEIDAPSMAGFSSRGPNLLSGDIIKPDVTAPGVNIIAGQTPASEGRGELFQMISGTSMSSPHVAGLFAMIKQAHPNWSPSTAKSALMTTAYQDVMKEDEATPADAFDMGAGHVNPGGKANKGSIFEPGLAYQAGLFEYAAYSCGAELGIFSPGTCGFLESLGIPTDPANLNLPSIGIANVIGSKTVYRSVTGVAKDSGWRTYSVDVDAPAGYEVSVLPASIKLKSGMSATYAVTITNTASPAGEWAHGSITWRDSNDHYSVYSPIAVKGALFEAPANITGSSETGSASIDVTFGYTGDYTASGYGLTAATVDIDSVVQDPDQIFDPGDTFSNAHAIVVSGAAYLRIAIPGVADPNADLDIFLLDSVGNIVGVSANGGTDELIEMELPGDDTYTLWVHGWSAPGGSTDYELYSWVVPMASGSLTVASAPSSATLGATETIGVDWTGATNGKWHFGVIGHSDAGGLIGATLVEVDNR”, which protein production is on record?
The protein production was “failed”.

With “MAEPKFTSFTTADFINDVDMELFIDAVEKTAPVWVKEMKSRGLLKFSMNRVWNKGEVFRVVMTYEYKDRASFEANIAYLEDTFGKNPVFLQLVTTAKFTTSRCLVVMEV” as the sequence, how does the protein production read?
Its protein production is “not failed”.

For “MCFSFIMPPAMADILDIWAVDSQIASDGSIPVDFLLPTGIYIQLEVPREATISYIKQMLWKQVHNYPMFNLLMDIDSYMFACVNQTAVYEELEDETRRLCDVRPFLPVLKLVTRSCDPGEKLDSKIGVLIGKGLHEFDSLKDPEVNEFRRKMRKFSEEKILSLVGLSWMDWLKQTYPPEHEPSIPENLEDKLYGGKLIVAVHFENCQDVFSFQVSPNMNPIKVNELAIQKRLTIHGKEDEVSPYDYVLQVSGRVEYVFGDHPLIQFQYIRNCVMNRALPHFILVECCKIKKMYEQEMIAIEAAINRNSSNLPLPLPPKKTRIISHVWENNNPFQIVLVKGNKLNTEETVKVHVRAGLFHGTELLCKTIVSSEVSGKNDHIWNEPLEFDINICDLPRMARLCFAVYAVLDKVKTKKSTKTINPSKYQTIRKAGKVHYPVAWVNTMVFDFKGQLRTGDIILHSWSSFPDELEEMLNPMGTVQTNPYTENATALHVKFPENKKQPYYYPPFDKIIEKAAEIASSDSANVSSRGGKKFLPVLKEILDRDPLSQLCENEMDLIWTLRQDCREIFPQSLPKLLLSIKWNKLEDVAQLQALLQIWPKLPPREALELLDFNYPDQYVREYAVGCLRQMSDEELSQYLLQLVQVLKYEPFLDCALSRFLLERALGNRRIGQFLFWHLRSEVHIPAVSVQFGVILEAYCRGSVGHMKVLSKQVEALNKLKTLNSLIKLNAVKLNRAKGKEAMHTCLKQSAYREALSDLQSPLNPCVILSELYVEKCKYMDSKMKPLWLVYNNKVFGEDSVGVIFKNGDDLRQDMLTLQMLRLMDLLWKEAGLDLRMLPYGCLATGDRSGLIEVVSTSETIADIQLNSSNVAAAAAFNKDALLNWLKEYNSGDDLDRAIEEFTLSCAGYCVASYVLGIGDRHSDNIMVKKTGQLFHIDFGHILGNFKSKFGIKRERVPFILTYDFIHVIQQGKTGNTEKFGRFRQCCEDAYLILRRHGNLFITLFALMLTAGLPELTSVKDIQYLKDSLALGKSEEEALKQFKQKFDEALRESWTTKVNWMAHTVRKDYRS”, which protein production is on record?
Its protein production is “failed”.

Which protein production does the source give for “MFMIKVITPETNHPKEGGILSALVSIYNCTIHIRKPRFTADQYKKYLHDHNQLLSHFVLHEHHSLAKEFPVMGVHLKELDRINPAQVHPDIKIISTSIHSIADAGNLSHPFEYIFYSPLFQSISKENYGTNNSLADLKKTVSELKEQTGIPIIGLGGIYEANIDLVKKSGFDGAALLGAVWVQSDPLAAFGRIASMILEHHHHHH” here?
The protein production was “failed”.

Which protein production does the source give for “MRRKERRESMKKHRQLLALFICLVMSVSLLTGYSETKAATEEPTQSAEQDATQETAETREITDMAGRKVTVPTAENIESVFSAGPVAAIFLYMVVPDKLLGWNYELNDVEKSIILDKYQDLPNFGMGDAVNYEAVIAANPTIAINSGKINDAMVSDCDALSESLGIPVVAVDNELNNSAEAFRFMGELLGVEDHAEELAQYAEQVFTDINVLSDIPEEKKVSVYFGNGEDSLETAPRGSQHAQILDAINAVNVADLELGDGSRVQISAEQLLAWDPDVIVVNGEPKADKSGSSAAEDILSNPDYASLKAVQDQKVYGTPNAPFSWVDRPAGPNRLIGMRWFSALIYPEYIKCDINEEIHKFFDLFYHVDLSDEQLENVLKGTL” here?
The protein production was “failed”.

Which protein production does the source give for “MTRMKMFKLWMVVMLLGLLPIVSEAQEEINNAINVQLEYLKKYPKDKEALRKVSFLYLNKADYDQAIFYGRQLFELGYNERDYNGAVIYSHICLGQAHMMKGNVKEAYSHLGQARLIGESNKNDSALCSVYNGLGLYASNVQKDYYRSLTYFFKGVEAARRCHYDRLYSILLSNIAGIYYLKNDSTGLKYALECYELGHERKDPYLIYSGSTNTAYMYYLKSDYNTALKYIQEAEFTMVQNDFYDQSNVYNLYGYILHKLNKDDEALVFFRKALDLKEQGNISSVMNSYLGYAEILMEHHQYDRAVRMLKAGIELSYQQANAIYRSDLLKALSRCYEEDGMLVEALKYHKLYQLETDSLYNAEKERAVGEIRAKYDMERQENEIKQNRLELLEKENKMQLLIAGFICIFIAASLLYYLYYRKNKLYLTIVKQNQDAIRREQQLQNKIDEQFAEIGRQSALLQEYLTDSTKTSLPQPEKYASSSLTDEKKQDLFLRLETLLWEEKVFTDNLLTKEKVAEMLGTNRTYLSQIINEQTKQTFTQFVNGFRTKEAVRLLSDPDNQTPLKAISAELGFNSMTTFYSQFQAATGMTPAQYRNKVQELHKNR” here?
Its protein production is “failed”.
